Test results taken from US20250163138A1 (Alexion, published 2025).
Substitutions are numbered along the chain they refer to. In names and notes the source's numbering stands. Blank lines part the entries; values can stand above or below the molecule they belong to.

Key:
human serum albumin [1] = target: T1, human serum albumin (human, UniProt P02768 25-609); assay: SPR (Biacore 3000), HSA amine-coupled on CM5 chip, pH 6.0, no VHH
T1 construct: also called HSA; human albumin

[2] = target: T2, Cynomolgus monkey serum albumin (cynomolgus monkey, UniProt A2V9Z4 25-608); assay: binding kinetics (method not named), pH 7.4
T2 construct: also called CSA; cynomolgus albumin

Plasbumin® [3] = target: T3, Plasbumin® (UniProt P02768 25-609); assay: binding kinetics (method not named), pH 7.4
[4] = target: T2, Cynomolgus monkey serum albumin; assay: binding kinetics (method not named), pH 6.0
Plasbumin® [5] = target: T3, Plasbumin®; assay: binding kinetics (method not named), pH 6.0
[6] = target: T4, human complement protein C5 (human, UniProt P01031 19-1676); assay: binding kinetics (method not named), pH 7.4
T4 construct: Native C5 is a two-chain protein made from one precursor; also called hC5; human C5

[7] = target: T5, cynomolgus monkey (cyno) complement protein C5 (cynomolgus monkey, UniProt A0A2K5U1T1 19-1676); assay: binding kinetics (method not named), pH 7.4
T5 construct: also called cC5; cyno C5

[8] = target: T4, human complement protein C5; assay: SPR (Biacore), pH 6.0
[9] = target: T5, cynomolgus monkey (cyno) complement …; assay: SPR (Biacore), pH 6.0
[10] = target: T4, human complement protein C5; assay: binding kinetics (method not named), pH 6.0
[11] = target: T5, cynomolgus monkey (cyno) complement …; assay: binding kinetics (method not named), pH 6.0
[12] = target: T4, human complement protein C5; assay: SPR (Biacore), pH 7.4
[13] = target: T5, cynomolgus monkey (cyno) complement …; assay: SPR (Biacore), pH 7.4
human serum albumin [14] = target: T1, human serum albumin; assay: sandwich: biotin-hC5 on CAP chip, test protein, then albumin; column 'Human C5 and Human Albumin'; protein has no anti-albumin domain
Procedure: (§1) The 26 constructs listed in Table 13 were expressed and the fusion proteins were evaluated for binding to human C5 and albumin (Table 13-Octet binding), generation of aggregates, hydrophobicity (HIC HPLC) and glycosylation (electrospray mass spectrometry). For the octet analysis, biotinylated human C5 was captured on a CAP chip followed by an injection of a test bi-specific molecule. Various concentrations of albumin were subsequently injected. Kinetics were determined at pH 7.4 (Biacore 3000).

[15] = target: T2, Cynomolgus monkey serum albumin; assay: BLI (Octet HTX), VHH-His on Penta-His sensors, 100 nM albumin
Source text: (§2) VHH sequences were first analyzed by SDS-PAGE and Coomassie staining to determine approximate concentration relative to a known standard. Supernatant concentrations were then normalized and subjected to biolayer interferometry on an Octet HTX (Pall/ForteBio). Penta-His sensors were exposed to kinetics buffer for 60 seconds to establish baseline measurements. The sensors were then loaded with VHH-His containing supernatants for 300 seconds before a second baseline was established in kinetics buffer over 120 seconds. Tips were then incubated with 100 nM HSA or CSA in kinetics buffer for 600 seconds and dissociation measured over an additional 600 seconds.

human serum albumin [16] = target: T1, human serum albumin; assay: as above
Source text: as §2

[17] = target: T4, human complement protein C5; assay: sandwich: biotin-hC5 on CAP chip, test protein, then albumin; column 'Human C5 and Human Albumin'; protein has no anti-C5 domain
Procedure: as §1

response difference (human serum albumin [1]): 30 RU
Molecule: FcRn (receptor)

Kd [2]: 3.78 nM
koff [2]: 0.0126 s⁻¹
kon [2]: 3.32e+06 M⁻¹ s⁻¹
Kd (Plasbumin® [3]): 0.936 nM
koff (Plasbumin® [3]): 0.00346 s⁻¹
kon (Plasbumin® [3]): 3.7e+06 M⁻¹ s⁻¹
Kd [4]: 2.12 nM
koff [4]: 0.00693 s⁻¹
kon [4]: 3.27e+06 M⁻¹ s⁻¹
Kd (Plasbumin® [5]): 0.563 nM
koff (Plasbumin® [5]): 0.002 s⁻¹
kon (Plasbumin® [5]): 3.55e+06 M⁻¹ s⁻¹
Kd [6]: 0.0512 nM
koff [6]: 0.000491 s⁻¹
kon [6]: 9.6e+06 M⁻¹ s⁻¹
Kd [7]: 0.219 nM
koff [7]: 0.000818 s⁻¹
kon [7]: 3.74e+06 M⁻¹ s⁻¹
Kd [8]: 0.189 nM
koff [8]: 0.00152 s⁻¹
kon [8]: 8.02e+06 M⁻¹ s⁻¹
Kd [9]: 0.641 nM
koff [9]: 0.0025 s⁻¹
kon [9]: 3.91e+06 M⁻¹ s⁻¹
Kd [10]: 0.138 nM
koff [10]: 0.00104 s⁻¹
kon [10]: 7.56e+06 M⁻¹ s⁻¹
Kd [11]: 0.744 nM
koff [11]: 0.0041 s⁻¹
kon [11]: 5.51e+06 M⁻¹ s⁻¹
Kd [12]: 0.233 nM
koff [12]: 0.000672 s⁻¹
kon [12]: 2.88e+06 M⁻¹ s⁻¹
Kd [13]: 0.42 nM
koff [13]: 0.000848 s⁻¹
kon [13]: 2e+06 M⁻¹ s⁻¹
B1: CRL0500 (bispecific antibody)
chain: EVQLVESGGGLVKPGGSLRLSCAASGRPVSNYAAAWFRQAPGKEREFVSAINWQKTATYADSVKGRFTISRDNAKNSLYLQMNSLRAEDTAVYYCAAVFRVVAPKTQYDYDYWGQGTLVTVSSGGGGSGGGGSGGGGSEVQLVESGGGLVQPGGSLRLSCAASGRAHSDYAMAWFRQAPGQEREFVAGIGWSGGDTLYADSVRGRFTNSRDNSKNTLYLQMNSLRAEDTAVYYCAARQGQYIYSSMRSDSYDYWGQGTLVTVSS
notes: anti-albumin VHH / (G4S)3 / anti-C5 VHH fusion, purified by Protein A; also called CRL0500 (HSA/C5)

Kd [2]: 5.19 nM
koff [2]: 0.0152 s⁻¹
kon [2]: 2.93e+06 M⁻¹ s⁻¹
Kd (Plasbumin® [3]): 0.901 nM
koff (Plasbumin® [3]): 0.00359 s⁻¹
kon (Plasbumin® [3]): 3.98e+06 M⁻¹ s⁻¹
Kd [4]: 2.49 nM
koff [4]: 0.00755 s⁻¹
kon [4]: 3.03e+06 M⁻¹ s⁻¹
Kd (Plasbumin® [5]): 0.649 nM
koff (Plasbumin® [5]): 0.0021 s⁻¹
kon (Plasbumin® [5]): 3.23e+06 M⁻¹ s⁻¹
Kd [6]: 0.0536 nM
koff [6]: 0.000539 s⁻¹
kon [6]: 1.01e+07 M⁻¹ s⁻¹
Kd [7]: 0.223 nM
koff [7]: 0.000786 s⁻¹
kon [7]: 3.53e+06 M⁻¹ s⁻¹
Kd [10]: 0.155 nM
koff [10]: 0.000907 s⁻¹
kon [10]: 5.84e+06 M⁻¹ s⁻¹
Kd [11]: 0.72 nM
koff [11]: 0.00399 s⁻¹
kon [11]: 5.55e+06 M⁻¹ s⁻¹
B2: CRL0952 (bispecific antibody)
chain: B1 chain with S128A, S133A

Kd [8]: 0.556 nM
koff [8]: 0.000236 s⁻¹
kon [8]: 425000 M⁻¹ s⁻¹
Kd [9]: 0.128 nM
koff [9]: 6.17e-06 s⁻¹
kon [9]: 48200 M⁻¹ s⁻¹
Kd [12]: 1.1 nM
koff [12]: 7.69e-05 s⁻¹
kon [12]: 70100 M⁻¹ s⁻¹
Kd [13]: 0.24 nM
koff [13]: 2.2e-05 s⁻¹
kon [13]: 91500 M⁻¹ s⁻¹
B3: CRL0484 (bispecific antibody)
chain: EVQLVESGGGLVQPGGSLRLSCAASGRTFSGILSPYAVGWFRQAPGKGLEFVSTITSGGSAIYTDSVKGRFTISRDNAKDSLYLQMNSLRAEDTAVYYCAVRTRRYGSNLGEVPQENEYGYWGQGTLVTVSSGGGGSGGGGSGGGGSEVQLVESGGGLVKPGGSLRLSCAASGRPVSNYAAAWFRQAPGKEREFVSAINWQKTATYADSVKGRFTISRDNAKNSLYLQMNSLRAEDTAVYYCAAVFRVVAPKTQYDYDYWGQGTLVTVSS
notes: anti-C5 VHH / (G4S)3 / anti-albumin VHH fusion, purified by Protein A; also called CRL0484 (C5/HSA)

Kd [8]: 5.27 nM
koff [8]: 0.000211 s⁻¹
kon [8]: 40000 M⁻¹ s⁻¹
Kd [9]: 1.25 nM
koff [9]: 4.62e-05 s⁻¹
kon [9]: 37100 M⁻¹ s⁻¹
Kd [12]: 1.07 nM
koff [12]: 0.000242 s⁻¹
kon [12]: 225000 M⁻¹ s⁻¹
Kd [13]: 0.24 nM
koff [13]: 2.2e-05 s⁻¹
kon [13]: 91500 M⁻¹ s⁻¹
B4: CRL0483 (bispecific antibody)
chain: EVQLVESGGGLVQPGGSLRLSCAASGRTFSGILSPYAVGWFRQAPGKGLEFVSTITSGGSAIYTDSVKGRFTISRDNAKDSLYLQMNSLRAEDTAVYYCAVRTRRYGSNLGEVPQENEYGYWGQGTLVTVSSGGGGSGGGGSGGGGSEVQLLESGGGLVQPGGSLRLSCAASGFTFRSFGMSWVRQAPGKGPEWVSSISGSGSDTLYADSVKGRFTISRDNSKNTLYLQMNSLRPEDTAVYYCTIGGSLSRSSQGTLVTVSS
notes: anti-C5 VHH / (G4S)3 / anti-albumin VHH fusion, purified by Protein A; also called CRL0483 (C5/HSA)

binding result (human serum albumin [14]): no binding
B5: TPP-3211 (VHH)
VHH: EVQLVESGGGLVQPGGSLRLSCAASGRAHSDYAMAWFRQAPGQEREFVAGIGWSGGDTLYADSVRGRFTNSRDNSKNTLYLQMNSLRAEDTAVYYCAARQGQYIYSSMRSDSYDYWGQGTLVTVSS
notes: Control: no anti-albumin domain (only anti-C5)

binding result [15]: binds
binding result (human serum albumin [16]): binds
B6: HAS042 (VHH)
VHH: EVQLVESGGGLVKPGGSLRLSCAASGRPVSNYAAAWFRQAPGKEREFVSAINWQKTATYADSVKGRFTISRDNAKNSLYLQMNSLRAEDTAVYYCAAVFRVVAPKTQYDYDYWGQGTLVTVSS
notes: anti-albumin VHH-His

binding result [17]: no binding
B7: TPP-3212 (VHH)
VHH: B6 VHH
notes: Control: no anti-C5 domain (only anti-albumin)
